The source of these data is patent US20160355564.

The data set concerns recombinant proinsulin protein.

Take tissue transglutaminase: the “substrate of the deamidase in test tube” value is reported as “recombinant proinsulin protein was shown to be a substrate for TG2”.
